Data set [1] deals with T1, Drosophila origin recognition complex, full-length (DmORC) (Drosophila, UniProt O16810 1-924; Q24168 1-618; Q7K2L1 1-721; Q9W102 1-459; Q24169 1-460; Q9Y1B2 …).
T1 construct: Orc1, Drosophila, subunit of full-length DmORC; Orc2, Drosophila, subunit of full-length DmORC; Orc3, Drosophila, subunit of full-length DmORC; Orc4, Drosophila, subunit of full-length DmORC; Orc5, Drosophila, subunit of full-length DmORC; Orc6, Drosophila, subunit of full-length DmORC; Heterohexamer Orc1-6; also called wild type DmORC; not shown: 6xHis, N-terminal, cleaved; MBP, N-terminal, …
Kind of data set: pull-down; MBP-DmCdc6 or 6xHis-MBP-DmCdc6ΔN (200 nM) as bait on amylose beads; DmORC (100 nM) with 60 bp AT-rich dsDNA (100 nM); 25 mM HEPES-KOH pH 7.6, 300 mM potassium glutamate, 10 mM magnesium acetate, 10% glycerol, 1 mM DTT, 0 or 1 mM ATP; 25 °C; SDS-PAGE and silver staining. The note with it: both partners purified.

The target of data set [2] is T2, Drosophila Orc2, subunit of DmORC^Orc1ΔN (Drosophila, UniProt Q24168 1-618).
T2 construct: Orc2, Drosophila; only Orc1 is named as truncated in DmORC^Orc1ΔN; also called DmOrc2; source: Hi5 insect cells, co-expressed with the other ORC subunits, purified as part of DmORC^Orc1ΔN
T2 sequence: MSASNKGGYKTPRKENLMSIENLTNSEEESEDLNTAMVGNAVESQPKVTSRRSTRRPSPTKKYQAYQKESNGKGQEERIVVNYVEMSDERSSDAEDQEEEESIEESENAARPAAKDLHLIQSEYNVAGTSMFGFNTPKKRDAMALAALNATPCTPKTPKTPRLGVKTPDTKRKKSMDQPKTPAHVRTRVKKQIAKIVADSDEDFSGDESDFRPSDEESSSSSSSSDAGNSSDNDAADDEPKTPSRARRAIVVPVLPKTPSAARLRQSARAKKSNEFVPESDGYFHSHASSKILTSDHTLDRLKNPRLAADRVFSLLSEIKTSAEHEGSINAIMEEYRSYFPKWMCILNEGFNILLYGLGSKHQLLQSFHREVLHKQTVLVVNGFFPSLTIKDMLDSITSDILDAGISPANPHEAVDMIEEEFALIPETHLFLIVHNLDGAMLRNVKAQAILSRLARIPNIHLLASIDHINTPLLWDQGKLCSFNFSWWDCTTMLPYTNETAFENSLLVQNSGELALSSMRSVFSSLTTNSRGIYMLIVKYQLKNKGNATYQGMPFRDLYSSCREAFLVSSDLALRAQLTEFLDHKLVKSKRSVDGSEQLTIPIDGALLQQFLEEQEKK
Kind of data set: cryo-EM structure; DmORC^Orc1ΔN (2.5 μM), duplex DNA (3 μM; 60 bp AT-rich, 84 bp AT-rich, 60 bp poly(dA·dT) or 60 bp GC-rich) and DmCdc6ΔN (6.8 μM) assembled at 25 °C in 25 mM HEPES-KOH pH 7.6, 250 mM potassium acetate, 10 mM magnesium acetate, 1 mM DTT, 1 mM ATP; purified by gel filtration. The note with it: both partners purified. A general note: In gel filtration, larger molecules generally elute earlier.

Data set [3] addresses T3, Drosophila origin recognition complex with N-terminally truncated Orc1 (DmORC^Orc1ΔN) (Drosophila, UniProt O16810 440-924; Q24168 1-618; Q7K2L1 1-721; Q9W102 1-459; Q24169 1-460; Q9Y1B2 …).
T3 construct: Orc1, Drosophila, without the N-terminal 439 amino acid residues (Orc1ΔN); Orc2, Drosophila; only Orc1 is named as truncated in DmORC^Orc1ΔN; Orc3, Drosophila; Orc4, Drosophila; Orc5, Drosophila; Orc6, Drosophila; full-length DmOrc6 was used to reconstitute the binary and ternary complexes; Heterohexamer used for cryo-EM and for the pull-down with Cdc6ΔN; also called truncated DmORC; not shown: …
The description is as above. The note with it: both partners purified.

The target in data set [4] is T4, Drosophila Orc3, subunit of DmORC^Orc1ΔN (Drosophila, UniProt Q7K2L1 1-721).
T4 construct: Orc3, Drosophila; only Orc1 is named as truncated in DmORC^Orc1ΔN; also called DmOrc3; source: Hi5 insect cells, co-expressed with the other ORC subunits, purified as part of DmORC^Orc1ΔN
T4 sequence: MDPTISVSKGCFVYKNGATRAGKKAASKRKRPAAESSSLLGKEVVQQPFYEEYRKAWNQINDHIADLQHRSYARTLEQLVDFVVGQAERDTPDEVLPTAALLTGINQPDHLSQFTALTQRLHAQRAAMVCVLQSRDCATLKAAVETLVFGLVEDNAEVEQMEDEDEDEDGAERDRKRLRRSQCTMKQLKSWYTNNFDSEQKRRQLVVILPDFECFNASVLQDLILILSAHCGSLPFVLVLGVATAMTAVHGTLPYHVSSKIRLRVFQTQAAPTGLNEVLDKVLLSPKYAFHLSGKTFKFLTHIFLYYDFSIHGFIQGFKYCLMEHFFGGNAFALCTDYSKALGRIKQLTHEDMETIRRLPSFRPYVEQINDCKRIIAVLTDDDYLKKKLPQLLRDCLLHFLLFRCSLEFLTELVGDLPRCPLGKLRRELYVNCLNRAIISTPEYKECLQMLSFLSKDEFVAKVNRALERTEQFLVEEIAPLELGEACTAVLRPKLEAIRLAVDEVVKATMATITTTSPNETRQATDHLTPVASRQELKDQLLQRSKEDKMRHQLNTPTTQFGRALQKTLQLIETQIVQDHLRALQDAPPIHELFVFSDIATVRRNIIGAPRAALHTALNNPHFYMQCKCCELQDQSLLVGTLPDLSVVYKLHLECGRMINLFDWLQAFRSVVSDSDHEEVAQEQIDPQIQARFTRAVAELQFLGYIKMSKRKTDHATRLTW
The data set is described as above. The settings on record: both partners purified.

Data set [5] has as its target T5, Drosophila Orc1 lacking the N-terminal 439 residues (Orc1ΔN), subunit of DmORC^Orc1ΔN (Drosophila, UniProt O16810 440-924).
T5 construct: Orc1, Drosophila, without the N-terminal 439 amino acid residues; also called DmOrc1; source: Hi5 insect cells, co-expressed with the other ORC subunits, purified as part of DmORC^Orc1ΔN; not shown: 6xHis, N-terminal, cleaved
T5 sequence (looked up): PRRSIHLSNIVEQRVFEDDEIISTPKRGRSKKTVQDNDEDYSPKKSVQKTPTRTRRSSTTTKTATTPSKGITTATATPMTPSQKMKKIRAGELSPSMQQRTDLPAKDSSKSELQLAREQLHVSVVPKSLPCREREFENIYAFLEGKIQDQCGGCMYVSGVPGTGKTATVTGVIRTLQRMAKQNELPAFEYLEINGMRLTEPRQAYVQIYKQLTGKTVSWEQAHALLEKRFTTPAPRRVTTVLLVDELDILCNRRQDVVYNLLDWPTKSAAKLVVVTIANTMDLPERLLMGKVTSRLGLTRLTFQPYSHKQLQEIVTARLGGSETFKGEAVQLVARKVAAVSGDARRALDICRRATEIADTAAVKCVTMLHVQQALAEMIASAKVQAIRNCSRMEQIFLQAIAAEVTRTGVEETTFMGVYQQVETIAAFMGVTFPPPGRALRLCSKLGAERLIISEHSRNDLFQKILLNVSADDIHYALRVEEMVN
The data set is described as above. The settings on record: both partners purified.

Data set [6] addresses T3, Drosophila origin recognition complex …. The data set can be described thus: pull-down; MBP-DmCdc6 or 6xHis-MBP-DmCdc6ΔN (200 nM) as bait on amylose beads; DmORC (100 nM) with 60 bp AT-rich dsDNA (100 nM); 25 mM HEPES-KOH pH 7.6, 300 mM potassium glutamate, 10 mM magnesium acetate, 10% glycerol, 1 mM DTT, 0 or 1 mM ATP; 25 °C; SDS-PAGE and silver staining. The note with it: both partners purified.

The target in data set [7] is DmORC Orc1deltaN;DmCdc6deltaN241 (Drosophila melanogaster;Drosophila …, UniProt O16810;Q24168;Q7K2L1;Q9W102;Q24169;Q9Y1B2;Q9VSM9 …, |del1-241). Kind of data set: cryo-EM; ATP, Mg2+; Anisotropy: 1 nM dsDNA, 25 mM HEPES-KOH pH 7.6, 300 mM K-glutamate, 10 mM Mg-acetate, 10% glycerol, 0.1% NP40, 1 mM DTT, 0.1 mg/mL BSA, 0 or 1 mM ATP, 25 C, 40. The settings on record: protein: recombinant;recombinant; tags: tags cleaved;6xHis-MBP cleaved by TEV; copies: 1;1;1;1;1;1;1; blunt.
DmORC Orc1deltaN;DmCdc6deltaN241, sequence (chain, as listed by the source |del1-241 | mutant, chain 4 of 3): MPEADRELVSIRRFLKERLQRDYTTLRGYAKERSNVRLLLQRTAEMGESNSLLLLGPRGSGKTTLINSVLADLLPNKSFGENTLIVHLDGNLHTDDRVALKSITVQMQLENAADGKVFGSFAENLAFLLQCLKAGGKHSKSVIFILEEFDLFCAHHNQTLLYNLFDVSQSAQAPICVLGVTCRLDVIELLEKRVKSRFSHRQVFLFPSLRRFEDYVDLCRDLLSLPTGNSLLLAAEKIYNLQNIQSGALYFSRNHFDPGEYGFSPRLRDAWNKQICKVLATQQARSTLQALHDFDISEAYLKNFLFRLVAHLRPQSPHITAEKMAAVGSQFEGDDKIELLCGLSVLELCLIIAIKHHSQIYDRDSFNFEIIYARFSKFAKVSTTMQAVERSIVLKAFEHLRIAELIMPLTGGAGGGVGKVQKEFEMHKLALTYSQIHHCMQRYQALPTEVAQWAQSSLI
DmORC Orc1deltaN;DmCdc6deltaN241, sequence (Q24169 whole entry, stated change not applied, chain 5 of 3): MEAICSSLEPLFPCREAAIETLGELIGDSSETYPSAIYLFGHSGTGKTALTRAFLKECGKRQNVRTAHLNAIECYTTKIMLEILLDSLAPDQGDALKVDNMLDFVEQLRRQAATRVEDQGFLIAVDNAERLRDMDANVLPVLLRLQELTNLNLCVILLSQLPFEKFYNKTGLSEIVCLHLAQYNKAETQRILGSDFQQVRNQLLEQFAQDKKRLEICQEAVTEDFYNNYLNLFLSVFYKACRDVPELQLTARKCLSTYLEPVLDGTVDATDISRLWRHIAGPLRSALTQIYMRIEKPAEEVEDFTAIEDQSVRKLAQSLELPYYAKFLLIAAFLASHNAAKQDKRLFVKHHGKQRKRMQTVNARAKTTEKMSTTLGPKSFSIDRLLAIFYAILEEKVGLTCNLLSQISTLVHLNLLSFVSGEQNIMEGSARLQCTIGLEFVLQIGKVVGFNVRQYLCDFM
DmORC Orc1deltaN;DmCdc6deltaN241, sequence (Q9Y1B2 whole entry, stated change not applied, chain 6 of 3): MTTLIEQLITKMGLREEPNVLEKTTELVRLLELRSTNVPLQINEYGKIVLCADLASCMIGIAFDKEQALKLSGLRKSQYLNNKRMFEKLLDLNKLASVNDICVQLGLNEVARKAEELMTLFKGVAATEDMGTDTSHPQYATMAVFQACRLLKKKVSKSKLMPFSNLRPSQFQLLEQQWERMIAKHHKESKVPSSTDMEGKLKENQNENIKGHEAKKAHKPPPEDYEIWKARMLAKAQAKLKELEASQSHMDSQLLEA

T3 sequence (chain, as listed by the source mutant, chain 4 of 3): as the sequence (chain, as listed by the source |del1-241 | mutant, chain 4 of 3) above
T3 sequence (Q24169 whole entry, stated change not applied, chain 5 of 3, the tested form may be a part): as the sequence (Q24169 whole entry, stated change not applied, chain 5 of 3) above
T3 sequence (Q9Y1B2 whole entry, stated change not applied, chain 6 of 3, the tested form may be a part): as the sequence (Q9Y1B2 whole entry, stated change not applied, chain 6 of 3) above

B1: full-length MBP-tagged Drosophila Cdc6 (MBP-DmCdc6) (natural protein, UniProt Q9VSM9 1-662, looked up)
chain: MAAVRRSTRLSSISKATAASPLPPSTQTPRRSEVWKRRQPKKVLADSDEEEEVVTAIYDLTSPVSENNENRNVLNKMDKISRRRTSQVQVAQSELPKTPRSTKKTVQSAGSSRAKREEENREATARFLEGEQDSEVDPLHGSPPKQRKLQPLPQHLISPSRLLDRLSIDERQEEEVEATTHKTETAEQQPKHQAKDEAKPRPKQQEDPLAQKQQEKPPTKQPNKNQTKEKSNIQTNEETQQNNLPSPSRNKYQNARRVLNSAETQNLPGRESQLQELREFFSNHLESQTSGSLYVSGQPGTGKTACLSLLLRDPDFSKRLQRVYINCTSIASVGAVYKKLCTELQLKVSGRTERDHLEAIQRHLKTAKRMLLLVLDEIDQLCTSRQEVLYTIFEWPALPGSRILLVGIANSLDLTDRALMRLNARCELKPRLMHFPPYSKQQIVEIFKSRLAEAEVLDVFPPVTLQLLAAKVSAISGDVRRALDIGRRVVEIAEQQKRDGEKEFNMKALQLEGKDAVEAKEKQDTLKPVQVTQVAAVLNKVYGASQNLEEDIEASFPLQQKLMLCTLVLMLRNERNKDISMGRLHEVYRRVCAKRNILALDQAEFTGTVDLVETRGILRIMRKKEPRLHKVLLQWDEEEVHAALSDKQLIASILSDTACLSK
notes: TEV site between MBP and Cdc6; source: Hi5 insect cells, baculovirus, purified (amylose, gel filtration); not shown: MBP, N-terminal, kept
B1: in data set [1], the binding result was “binds”.

B2: N-terminally truncated Drosophila Cdc6 (DmCdc6ΔN241), tags removed (domain or fragment, UniProt Q9VSM9 242-662, looked up)
chain: NNLPSPSRNKYQNARRVLNSAETQNLPGRESQLQELREFFSNHLESQTSGSLYVSGQPGTGKTACLSLLLRDPDFSKRLQRVYINCTSIASVGAVYKKLCTELQLKVSGRTERDHLEAIQRHLKTAKRMLLLVLDEIDQLCTSRQEVLYTIFEWPALPGSRILLVGIANSLDLTDRALMRLNARCELKPRLMHFPPYSKQQIVEIFKSRLAEAEVLDVFPPVTLQLLAAKVSAISGDVRRALDIGRRVVEIAEQQKRDGEKEFNMKALQLEGKDAVEAKEKQDTLKPVQVTQVAAVLNKVYGASQNLEEDIEASFPLQQKLMLCTLVLMLRNERNKDISMGRLHEVYRRVCAKRNILALDQAEFTGTVDLVETRGILRIMRKKEPRLHKVLLQWDEEEVHAALSDKQLIASILSDTACLSK
notes: Cdc6, Drosophila, ΔN241, amino acids 242-662; not shown: 6xHis, N-terminal, cleaved; MBP, N-terminal, cleaved
As for B2, the binding result in data set [2], in data set [3], in data set [4] and in data set [5] was “binds” throughout.

B3: 6xHis-MBP-tagged N-terminally truncated Drosophila Cdc6 (6xHis-MBP-DmCdc6ΔN241) (domain or fragment, UniProt Q9VSM9 242-662, looked up)
chain: B2 chain
notes: Cdc6, Drosophila, ΔN241, amino acids 242-662; also called 6xHis-MBP-tagged DmCdc6ΔN241; source: TEV cleavage omitted; not shown: 6xHis, N-terminal, kept; MBP, N-terminal, kept
For B3, in data set [6], the binding result is on record as “binds”.

B4: 84 bp AT-rich (dsDNA)
DNA 1: TTTGTGCACTTGCCTGCAGGCCTTTTGAAAAGCAAGCATAAAAGATCTAAACATAAAATCTGTAAAATAACAAGATGTAAAGAT
DNA 2: ATCTTTACATCTTGTTATTTTACAGATTTTATGTTTAGATCTTTTATGCTTGCTTTTCAAAAGGCCTGCAGGCAAGTGCACAAA
B4: the binding result in data set [7] is listed as “binds”.

B5: 60 bp GC-rich (70% GC) (dsDNA)
DNA 1: GGGGCTCGACTCCAAGTGCGGGGCACTCGTCTGTGAGGGGGCTCAGTTCGCACTGCGGGG
DNA 2: CCCCGCAGTGCGAACTGAGCCCCCTCACAGACGAGTGCCCCGCACTTGGAGTCGAGCCCC
On to B5, for which, in data set [7], the binding result is reported as “binds”.

The record behind these values is publication PMC7450096, “Structural mechanism for replication origin binding and remodeling by a metazoan origin recognition complex and its co-loader Cdc6” (Nature Communications, 2020).
